Assay results as given in patent publication US11147859B2, “Diffusion enhancing compounds and their use alone or with thrombolytics” (Diffusion Pharmaceuticals LLC, priority 2009, dated 2021).

Tested on: rabbit small clot embolic stroke model (RSCEM)
Assay: Rabbit small clot embolic stroke model (RSCEM), quantal dose-response analysis of behavior
Assay type: in vivo, Male New Zealand white rabbits
Conditions: for group P50: Mean±SEM
Excerpt: Methods: This model uses rabbits and is known as RSCEM. Male New Zealand white rabbits were anesthetized using isoflurane (5% induction, 2% maintenance by facemask), the bifurcation of the right carotid artery was exposed and the external carotid was ligated just distal to the bifurcation, where a catheter was inserted into the common carotid and secured with ligatures. The incision was closed around the catheter with the distal ends left accessible outside the neck; the catheter was filled with heparinized saline and plugged with an injection cap. Rabbits were allowed to recover from anesthesia for a minimum of 2 h until they behaved normally. After that time, microdots were prepared from blood drawn from a donor rabbit and allowed to clot at 37° C., as described in detail previously. Microclots were re-suspended in PBS, then washed and allowed to settle, followed by aspiration of the supernatant and spiking of the microclots with tracer quantities of 15-μm radiolabeled microspheres. The specific activity of the particles was determined by removing an aliquot, after which appropriate volumes of PBS solution were added so that a predetermined weight of clot particles were rapidly injected through the catheter and both the syringe and catheter were flushed with 5 ml of normal saline.
Quantal Dose-Response Analysis: For behavioral analysis, a quantal dose-response data analysis technique was used as described previously. A wide range of lesion volumes is induced to generate both normal and abnormal animals with various behavioral deficits. […] Briefly, to evaluate the quantitative relationship between numbers of clots in the brain and neurological deficits (coma or death), logistic (S-shaped) curves are fitted by computer to the quantal dose-response data (see FIGS. 1 and 2).
These parameters are measures of the amount of microclots (in mg) that produce neurologic dysfunction in 50% of a group of animals (P50). The P50 values are then calculated as described previously and are presented as Mean±SEM. […] The data were analyzed using the t-test. […]

B1: tPA: Tissue plasminogen activator, a protein thrombolytic agent (clot-busting drug); Genentech lots (protein, UniProt P00750 36-562, looked up)
Tissue-type plasminogen …: SYQVICRDEKTQMIYQQHQSWLRPVLRSNRVEYCWCNSGRAQCHSVPVKSCSEPRCFNGGTCQQALYFSDFVCQCPEGFAGKCCEIDTRATCYEDQGISYRGTWSTAESGAECTNWNSSALAQKPYSGRRPDAIRLGLGNHNYCRNPDRDSKPWCYVFKAGKYSSEFCSTPACSEGNSDCYFGNGSAYRGTHSLTESGASCLPWNSMILIGKVYTAQNPSAQALGLGKHNYCRNPDGDAKPWCHVLKNRRLTWEYCDVPSCSTCGLRQYSQPQFRIKGGLFADIASHPWQAAIFAKHRRSPGERFLCGGILISSCWILSAAHCFQERFPPHHLTVILGRTYRVVPGEEEQKFEVEKYIVHKEFDDDTYDNDIALLQLKSDSSRCAQESSVVRTVCLPPADLQLPDWTECELSGYGKHEALSPFYSERLKEAHVRLYPSSRCTSQHLLNRTVTDNMLCAGDTRSGGPQANLHDACQGDSGGPLVCLNDGRMTLVGIISWGLGCGQKDVPGVYTKVTNYLDWIRDNMRP
In the case of B1, the “group P50” value (tPA 3.3 mg/kg IV given 1 hour following embolization) is reported as 2.48 ± 0.17 mg, the “group P50” value (tPA 3.3 mg/kg IV given 3 hours following embolization) is reported as 1.00 ± 0.56 mg and the “effect on behavior / P50 value (in words)” value (tPA given 3 hours following embolization) is reported as “ineffective”.
